According to publication PMC3297588:

Biological target: holo-hemoglobin (UniProt P01966)
Assay: SPR

Chain of UniProt P01966 (P01966 whole entry, chain 1 of 2): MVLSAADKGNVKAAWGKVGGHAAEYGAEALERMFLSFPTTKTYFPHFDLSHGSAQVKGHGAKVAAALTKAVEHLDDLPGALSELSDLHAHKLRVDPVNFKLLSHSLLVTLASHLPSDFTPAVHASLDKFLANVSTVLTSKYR
Chain of UniProt P01966 (P02070 whole entry, chain 2 of 2, further chain): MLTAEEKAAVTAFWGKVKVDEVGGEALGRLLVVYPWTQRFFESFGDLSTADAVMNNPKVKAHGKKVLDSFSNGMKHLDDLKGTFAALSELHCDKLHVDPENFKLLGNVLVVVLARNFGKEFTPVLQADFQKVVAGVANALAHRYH

IsdX1 (amino acids 26-146), wild-type, apo form (domain or fragment)
Kd: 15 nM
